Values quoted from earlier work as cited in publication PMC8657489, “Identification of VEGF Signaling Inhibition-Induced Glomerular Injury in Rats through Site-Specific Urinary Biomarkers” (International Journal of Molecular Sciences, 2021).

What was measured:
patients [1] = conditions: human, in vivo
[2] = tested on: glomerular endothelial cells and podocytes; parameters: method as in PMID 17726104; conditions: rats
patients [3] = tested on: patients; parameters: method as in PMID 24574832; conditions: patients receiving Sunitinib

Compound: Bevacizumab: monoclonal antibody against VEGF-A, also known as Avastin
- patients who developed proteinuria (patients [1]): 21~64%
- proteinuria considered severe cases (grade 3–4) (patients [1]): 2.1–11.9%

Compound: COc1cc2c(Nc3ccc(Br)cc3F)ncnc2cc1OCC1CCN(C)CC1 [vandetanib]
- glomerular morphological changes [2]: not only the loss of fenestration in glomerular endothelial cells, but also morphological changes in podocytes

Compound: CCN(CC)CCNC(=O)c1c(C)[nH]c(/C=C2\C(=O)Nc3ccc(F)cc32)c1C [Sunitinib]
- renal adverse effects (patients [3]): proteinuria and renal insufficiency were reported
